Test results published in publication PMC3419730, “NRFL-1, the C. elegans NHERF Orthologue, Interacts with Amino Acid Transporter 6 (AAT-6) for Age-Dependent Maintenance of AAT-6 on the Membrane” (PLoS ONE, 2012).
Substitutions are numbered along the chain they refer to.

Columns and labels:
[1] = molecular target: T1, 3×FLAG-NRFL-1 (wild type) (C. elegans, UniProt G5EDM4 1-467); assay: pull-down; GST pull-down: 2 µg GST fusion protein and 5 µg recombinant 3×FLAG-NRFL-1, overnight at 4°C in 50 mM Tris pH 7.4, 150 mM NaCl, 5 mM EDTA, 0.1% NP-40; blot with anti-FLAG; settings: both partners purified
T1 construct: NRFL-1 (C01F6.6a), C. elegans, full-length wild type; cDNA first ligated into p3×FLAG-myc-CMV-24, then the 3×FLAG-NRFL-1 fragment moved into pGEX-6P-1; also called recombinant NRFL-1 wild-type; not shown: GST, N-terminal, cleaved; 3×FLAG, N-terminal, kept
T1 sequence (looked up): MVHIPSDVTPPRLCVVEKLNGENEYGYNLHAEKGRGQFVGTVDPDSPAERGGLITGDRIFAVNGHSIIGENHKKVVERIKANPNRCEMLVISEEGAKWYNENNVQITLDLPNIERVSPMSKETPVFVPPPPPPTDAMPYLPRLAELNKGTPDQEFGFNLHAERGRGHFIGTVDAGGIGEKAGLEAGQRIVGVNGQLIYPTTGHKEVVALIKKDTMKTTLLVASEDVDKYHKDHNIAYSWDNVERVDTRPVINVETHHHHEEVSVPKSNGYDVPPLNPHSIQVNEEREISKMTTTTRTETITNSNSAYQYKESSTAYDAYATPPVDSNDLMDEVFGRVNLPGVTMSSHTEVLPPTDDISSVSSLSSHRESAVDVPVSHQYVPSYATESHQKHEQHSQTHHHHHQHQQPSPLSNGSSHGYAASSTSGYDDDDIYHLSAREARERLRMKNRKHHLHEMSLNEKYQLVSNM

[2] = molecular target: T2, 3×FLAG-NRFL-1 with PDZ I mutated (G26A/Y27A) (C. elegans, UniProt G5EDM4 1-467, G26A | Y27A); assay: as above; settings: both partners purified
T2 construct: not shown: GST, N-terminal, cleaved; 3×FLAG, N-terminal, kept
T2 sequence (looked up): T1 sequence (looked up) with G26A, Y27A

B1: GST fusion of AAT-6 C-terminus tail corresponding to residues 487–523 (domain or fragment, C. elegans, UniProt Q22397 487-523, looked up)
chain: GDEEMKNAIGGAESESEKVPAYKISPTGNGQFKCTRM
notes: also called GST-AAT-6; source: E. coli BL21 (DE3), purified (Glutathione Sepharose 4B); not shown: GST, N-terminal, kept
[1]
  binding result: binds
[2]
  binding result: binds
